The record followed here is the DeepSol protein solubility set.

A short description of the series: soluble on expression in E. coli; label from the status in PepcDB or PDB records.
Regarding “MSLTFKLRETIKINHKKVQRIMQWLGLKGKCKTQKYRSYQGEVGHIADNLLQRDFTATQPNEKWTTDITEFKCAEGKLYLSPIKDLFNNEIIAYDLARSPNFEQITRMMKQAVARLEGAKPILHSDQGWQYQMIGYQNILRENGIQQSMSRKGNCLYNSAMESFFGRLKTECYYGKRFETFEQLEKTIHEYIHYYNHERIQGKLKGLSPVNYRTQSLNEGHHHHHH”, the “soluble on expression in E. coli” value is “not soluble”.
With “YEPEGNRADYWRFARALYAAGFRAGELAYNCFSYHFTPAGSMMETAAHAVGCTVFPGGTGQTEQQVRAIHDLAPSGYTGTPSFLKLILEKADELGIRLDSLRRALVSGEAFPPSLRDWLAARGIEGYQAYGSADLGMIAFETPAREGLVVGED” the entry was “not soluble”.
“MGSDKIHHHHHHMGAARRLPSALFLLGCRTRTRGEHAHMGKIRTGIGGWTFEPWRGTFYPDDLKQKDELKYAASKLTSIEINGTYYSTFKPNSWMKWRDETPDDFVFSVKASRFCTNRRVLSENNDSLEKFLSQGLEELGPKLGPINWQFMATKKFDPADFEGFLKLLPSEQKGVRLRHAMEVRSPTFACQQFYDLCAQYGVAIVYAVDDEAPEWPRIDQPTADFTYARLMCSREDEPTGMTSEELDGVVAQTHKWAERGDVFAYFIAGAKVRNPAAAMALIGKLGG”: the “soluble on expression in E. coli” value is “not soluble”.
With “MGSDKIHHHHHHMLKEFKEQRLKEIQELRSMGIEPYPYKFEKELTAREIREKYDYLQAGEVLESEKLSFAGRVMSIRHHGKTAFFHMKDDTGRIQAYIKADSVGKEKMDLFKRHVKIGDFVGVRGFPFKSKTGELTIYVQEYTLLSKALRPLPEKWHGIKDKEIIYRQRYLELIVNDEAIERFKKRFKAVRVIREFLNSRGFIEVETPILHYVTGGAEARPFVTHLNVFDIDMYLRIAPELYLKRLIVGGFEKIYEIGKNFRNEGISYKHSPEFTSIEIYQAYADYNDMMDLTEELIVEVVKRTCGTLKISYQGKEIDFTPPWKRVRMRDFLKEKLGVDILEDPDEVLLKKLEEHGVELEIKNRAHLIDKLRDLVEEELVNPTFIIDHPVVISPLAKRHREDPRLTERFELIIFGREIANAFSELNDPVDQYQRFLEQAKMREEGDEEAHMMDLDFVRALEYGMPPTGGLGIGLDRLFMFITDSPTIRDVIPFPIVKPKKFEEEEAEFEGGFEE” the entry was “not soluble”; with “MHGKDPFSDFREFINTMESRVQELGKAYGVEHLAGPQGFAVRYLFENQDKEIFIKDIEKKLSISKSVASNLVKRMEKNGFVELVTSDKDKRYKYVHLTDLGKKKAQDVGHFREAIHGQLLDGISKEDAETAFRVFHQIRKNLEKNKE”, “not soluble”.
Consider “MGSDKIHHHHHHAQESLFLKDPSTKNKLLQLDLDVGTCFDLAYRGKGNMYTAMSDRKSVFPAINLRLQHFFSRKWGWYTNIRLGIPVKYRRDCYTELVHAVEADYYVNNLIPGTQKPDVNPCLDFGVAYRFENSHWAFYPRLGIGVNSISYQRVCAELKKKGGNELYKIEYRGDDESNYGSESIDAFILSAGITANYKLSRNCFLLLNVNYIQPLGRFTYRKYVTDLYTGEKVERGVYKSSTFARDLNVSVGFGFPFYLGRKTNRKSSHRERTRQLMEQKRKTYGLFPGNK”, for which the “soluble on expression in E. coli” value is reported as “not soluble”.
Take “MTRGPIFLNVGISYGLPRTKLPAAVSFRKWVAATLQGRIRKADLAIRIVDEKEGRALNYHYRNKDYATNVLSFPAQLPEPLPKALKIPLLGDIVMCAPVIAREAAEQGKSLSAHYAHLTVHGTLHLLGWNHEDHQEADAMEQLEREILANLGISDPYLEEY”: the “soluble on expression in E. coli” value was “soluble”.
For the sequence “MRFGEGSAKPIVSAATYGVGGNAFAQAIADPVSTVHSNKPELLVVDGYNVIHCTPRYEKLVYDHSDDPYSSDVHDMARTALINDVAAFAQGRYEAVIVFDGAGNISSERPNLPARGVRIEFSPTGVSADTVVQKLCIEAREEGRACSVVSSDGTIQAVVMGKGVTRISSRMLVDEIKQIDNDVHEAEEAPQIKMTLEHHHHHH”, the “soluble on expression in E. coli” value is recorded as “soluble”.
In the case of “SNAMLFCDDSKKYLKEQNINLKNEFDKDDKRVEKFSLKHQNIYFDYSKNLINDYILKSLLESAEKSSLKDKIKQMFNGAKINSTEHRAVLHTALRDLSSTPLIVDGQDIRQEVTKEKQRVKELVEKVVSGRWRGFSGKKITDIVNIGIGGSDLGPKMVVRALQPYHCTDLKVHFVSNVDADSLLQALHVVDPETTLLIIASKSFSTEETLLNSISAREWLLDHYEDEKAVANHFVAISSKLDKVKEFGIDLEHCYKMWDWVGGRYSLWSSIGMSIAFAIGYDNFEKLLAGAYSVDKHFKETEFSKNIPVIMALLASYYSCTYNSQSQALLPYDERLCYFVDYLQQADMESNGKSVNIAGETVNYQTGVVLWGGVGTNGQHAFHQLLHQGNIFIPVDFIAIATSHHNYDNHQQALLANCFAQSQALMFGQSYDMVYNELLKSGLNETQAKELAAHKVIPGNRPSTTILLDELSPYSLGALIALYEHKIFVQGVLWDINSYDQWGVELGKKLGKNILKAMNDDSSDEYQNLDDSTRQLIAKVKNK”, the “soluble on expression in E. coli” value is reported as “soluble”.
In the case of “MAARPKLHYPNGRGRMESVRWVLAAAGVEFDEEFLETKEQLYKLQDGNHLLFQQVPMVEIDGMKLVQTRSILHYIADKHNLFGKNLKERTLIDMYVEGTLDLLELLIMHPFLKPDDQQKEVVNMAQKAIIRYFPVFEKILRGHGQSFLVGNQLSLADVILLQTILALEEKIPNILSAFPFLQEYTVKLSNIPTIKRFLEPGSKKKPPPDEIYVRTVYNIFRP” it was “soluble”; in that of “MKVLILRPAELLSETIRRFREEGFDAYGCPFIKLIYTDFDVPEHDFAIVTSQNAARVLRERGVRLKRVIAIGKKTAELIEAEEVLLPSKFDSETLYEEFAEMLRGKRVVAFRSNAGSEAVKRLSEVADFREIQVYRIEKLQGEEQRREVEKVREGFYDAIVFSSSMIARSLLELCDEKCLEALKNIFVVAIGPPTAKVLAEKGIRAEIPEEYTFDGVIELLKSKKMLEHHHHHH”, “soluble”.
With “MGSDKIHHHHHHMMKKTHYNILMVNLPFSGHTNPTLGLAQILVQLGHNVTYINAPDWQSKIERTGAHFVPYDHYPDSLSERQKKVKSWSAAYQTVLRMGKDYDCLIYEMLFFPGKALADRLNIPAYRLFSTFSLNEKILTEFGKTGGFYLTSIFRFTFLRHLLSRKLQRTFQLAYDDLAKEISLNTPELNFTYTVREFQIDADTFDENHYQYVGPSINRPVEPPFDFTPFKNPIIYISLGTLLNRSVSFFKKCIKAFENEPYSIIISLGNRIKKEQLGTMPANVHLYSFVPQLQILERASLFLTHGGMNSVNEAIYYGCPMLVIPVGNDQPRVAQQVADLHLGKCLKCHNLNPQEIKQAAHTILKDSSYKNTIWHFQKIAQTAGGNTLIAQTIIKDLQTKP” the entry was “not soluble”; with “DGTLVVDIDGCISHANPAAETLLAGPEESLVGQQVEAVIPTWDSLTVDDEQADWSELALSVDGQQRFVELEVTPFADRF”, “not soluble”; with “PDYIYAKDTAGRFLIANEVTVADNGLESLRDLVGKTDFDLHPHEFAQAVADTERRVLETGEPIFGIEERAIVTKDRDRWLMTSKVPLRSKSGRIIGIVGISRD”, “not soluble”.
Regarding “MFLDEHINRNFDKLNDNDLHIAHFINTHIDECKNMKIQDLAQFTHASNATIHRFTRKLGFDGYSDFKSYLKFESNKTHQLPSNSIDSFKQEIDSTFSYLERVDYQLLTEKMHTA”, the “soluble on expression in E. coli” value is “not soluble”.
As to “MTGTYTELIEGSERLSGLTDVDEVIKDLSRLLRKLVKTRWIAVYFFDRERRDFAPARSTGLPASFLPVFREMPLAPDKIPLLKSMLRKRQHLMLTDPGSSDLLTPKLRKLLRNLCVLAVPMVVRTQVIGAVFMARTRDNPPFSDAETAIIRDLVSHAALVVSHMQLFDE”, the “soluble on expression in E. coli” value is recorded as “not soluble”.
For the sequence “MVVSIIPQFPDIKVSLALFEQVKNAKEIRSKMSELSTSFAFIDPRLVCSGEQMYSAIYKTLIEVKYNKMRTRNLNSECVLCLSPTSNISDAFLKFGIKDDSSQLICLKFHTNTDDVDKEQLRTIMTSIVKGQEIEFNDDNLSRFYDEALIRKVCFNNKFEVKTSTASPETHCTNFTFVFLLFCFYLLDL”, the “soluble on expression in E. coli” value is on record as “not soluble”.
As to “MSNDKSAEVVVLPRENDEESKEPVLKNQFDLSTFDIDSPEIDLTHTRADHIPDLTGFPKIEELRMRNNLLVSISPTISSLVTLTSLDLYENQLTEISHLESLVNLVSLDLSYNRIRQINGLDKLTKLETLYLVSNKIEKIENLEALTQLKLLELGDNRIKKIENIGHLVNLDELFIGKNKIRQLEGVETLQKLSVLSLPGNRIVKIENVEQLNNLKELYLSDQGLQDIHGVEPLTNLLLLDVANNEIKTFSGVERLESLNDFWANDNKVESFSEIEQLSKLKGLQTVYLERNPFYFNDTNQYRRKVMMTLTQVTQIDATTCRKPIE”, the “soluble on expression in E. coli” value is given as “not soluble”.
On to “MMCISKLPAVLLILSVALNHLRATPVRSGSNPQMDKRKCNTATCATQRLANFLVRSSNNLGPVLPPTNVGSNTYGKRNAAGDPNRESLDFLLV”, for which the “soluble on expression in E. coli” value was “not soluble”.
For “MAKENPFTPFSDWTKHWQQFFQNDFWGSIQPLLPSSNKPSSGMNIYKKDNELLVVISLPGLEKIEDAEVYVSYKTLEVKATINLNFKGFELVEEGLFQGQFQKTIPLPFAVKEDRIEATYHNGLLFIHLHRLIPDEPKKKIVIKKSE”, the “soluble on expression in E. coli” value was “not soluble”.
“MGSDKIHHHHHHMDQKALSMFAHLSQTLHFGKTALAHHISPSTLSRAIQRLEDEVGGELLHRDNRTVVLTDVGKKFKIYAEQQLEQWHSFKQSLDHKQAALTGKLHIYCSVTAAYSHLPPLLERFRARHPLVEIMLTTGDAADALEQVQNQSVDFAIAAAPENLPRSVYFHHLDTIALTVIAPTMTCKVQQQLSQKVLTWSEIPIILPEHGAARKRFELWYRKKQQGKPTIYATVSGHEALVSMVALGCGVGIVPQVVVDNSPVKDRVSNLENIGDIEPFELGVCCLNQAKAQPLIKAFFSSIV”: the “soluble on expression in E. coli” value is given as “not soluble”.
With “MSNQQALVIFSGGQDSTTCLIQAIQTYGRENVQAITFQYGQRHAVELERARWIAQDLGVKQTVLDLSLMRQITHNALMDDTAAIETAENGVPNTFVDGRNALFLLYAAIYAKGQGIRHIIAGVCETDFSGYPDCRDVFVKSMNVTLNLAMDYDFQIHTPLMYLTKAQTWALADEMGVLDYIREQTHTCYNGIVGGCRECPSCILRERGLAEYLESKKAV”, the “soluble on expression in E. coli” value is on record as “not soluble”.
In the case of “DLVPQIIWTGSSDGFIDYYNKRWYEYTGFDGKAFGDKSWVPVMHPDDVQEVLDCWYGSVKKGTPYQIELRMKSAETGEYRWFLSKALPIKDKTGVITKWFGTCTDI”, the “soluble on expression in E. coli” value was “not soluble”.
“GSGTMEKGTFTLKDIYKQIEAMNKMGPVRKIFEMLPFGLGLKVDNDVMEMTQEKMKKFRVIMDSMTEEELLNPKIIDSSRIRRIAIGSGTSPQEVKELLNYYKTMKNLMKKMKKNKLPI”: the “soluble on expression in E. coli” value is “soluble”.
Consider “MSDSSSSDGEDNQKFLGNRKKNLTKKKVVTEEIEKDDEEDVKEKSFAELGVSQPLCDACQRLGWMKPSKIQQAALPHALQGKDVIGLAETGSGKTGAFAIPVLQSLLDHPQAFFCLVLTPTRELAFQIGQQFEALGSGIGLIAAVIVGGVDMAAQAMALARRPHIIVATPGRLVDHLENTKGFNLKALKFLIMDEADRILNMDFEVELDKILKVIPRERRTYLFSATMTKKVSKLERASLRDPARVSVSSRYKTVDNLKQHYIFVPNKYKETYLVYLLNEHAGNSAIVFCATCATTMQIAVMLRQLGMQAVPLHGQMSQEKRLGSLNKFKSKAREILVCTDVAARGLDIPHVDMVINYDMPSQSKDYVHRVGRTARAGRSGIAITVVTQYDVEAYQKIEANLGKKLDEYKCVENEVMVLVERTQEATENARIEMKEMDEKKKSGKKRRQNDDFGDTEESGGRFKMGIKSMGGRGGSGGGRGGKKKKMSK”, for which the “soluble on expression in E. coli” value is recorded as “soluble”.
